{"source": "patent US12121566B2", "about": "“Methods for treating gout” (Horizon Therapeutics USA, Inc., priority 2019, dated 2024)", "key": {"[1]": {"system": "patients with chronic gout refractory to conventional therapy", "test": "Adverse reactions in pre-marketing controlled clinical trials of KXX", "type": "in vivo, human", "description": "During the second 3 months of treatment, a lower proportion of pegloticase-treated patients experienced flares than patients receiving placebo. The incidence of flares during this time period was lowest in the group receiving pegloticase 8 mg every 2 weeks than in the group who received pegloticase 8 mg every 4 weeks, as was the incidence of infusion-related reactions (26% with biweekly dosing vs. 40% with the every-4-week dosing regimen). Both infusion reactions (IRs) and gout flares were least common in patients with sustained urate-lowering responses to treatment and those who received bi-weekly treatment. In most pegloticase-treated patients with IRs, a loss of response to pegloticase (return to SUA>6 mg/dL) preceded the time of the first IR (20/21; 95%).\nThe most commonly reported serious adverse reactions from pre-marketing controlled clinical trials were anaphylaxis, which occurred at a frequency of 6.5% in patients treated with KXX 8 mg every 2 weeks, compared to none with placebo; infusion reactions, which occurred at a frequency of 26% in patients treated with KXX 8 mg every 2 weeks, compared to 5% treated with placebo; and gout flares, which were more common during the first 3 months of treatment with KXX compared with placebo. All patients in pre-marketing controlled clinical trials were pre-treated with an oral antihistamine, intravenous corticosteroid and/or acetaminophen to prevent anaphylaxis and infusion reaction.\nThe data described below reflect exposure to KXX in patients with chronic gout refractory to conventional therapy in two replicate randomized, placebo-controlled, double-blind 6-month clinical trials: 85 patients were treated with KXX 8 mg every 2 weeks; 84 patients were treated with KXX 8 mg every 4 weeks; and 43 patients were treated with placebo. These patients were between the ages of 23 and 89 years (average 55 years); 173 patients were male and 39 were female; and 143 patients were White/Caucasian, 27 were Black/African American, 24 were Hispanic/Latino and 18 were all other ethnicities. Common co-morbid conditions among the enrolled patients included hypertension (72%), dyslipidemia (49%), chronic kidney disease (28%), diabetes (24%), coronary artery disease (18%), arrhythmia (16%), and cardiac failure/left ventricular dysfunction (12%).\nDiagnostic criteria of anaphylaxis were skin or mucosal tissue involvement, and, either airway compromise, and/or reduced blood pressure with or without associated symptoms, and a temporal relationship to KXX or placebo injection with no other identifiable cause. Using these clinical criteria, anaphylaxis was identified in 14 (5.1%) of 273 total patients studied in the clinical program of IV KXX. The frequency was 6.5% for the every 2-week dosing regimen (8 of 123 patients), and 4.8% for the 4-week dosing frequency (6 of 126) of KXX. There were no cases of anaphylaxis in patients receiving placebo."}, "[2]": {"test": "Pharmacokinetics after single intravenous infusions, serum uricase enzyme activity", "type": "in vivo, human", "settings": "single intravenous infusions of 0.5 mg to 12 mg, 23 patients", "description": "Pegloticase levels were determined in serum based on measurements of uricase enzyme activity."}, "[3]": {"test": "Stability of pegloticase diluted in infusion bags", "type": "physicochemical", "settings": "at 2° C. to 8° C. and at room temperature (20° C. to 25° C.)", "description": "Pegloticase-diluted in infusion bags is stable for 4 hours at 2° C. to 8° C. (36° F. to 46° F.) and at room temperature (20° C. to 25° C., 68° F. to 77° F.); however, it is recommended that the diluted solution be stored under refrigeration, not frozen, protected from light, and used within 4 hours of dilution. Before administration, the diluted solution of pegloticase should be allowed to reach room temperature. Pegloticase in a vial or in an IV infusion fluid should never be subjected to artificial heating.\nKXX diluted in infusion bags is stable for 4 hours at 2° to 8° C. (36° to 46° F.) and at room temperature (20° to 25° C., 68° to 77° F.). However, it is recommended that diluted solutions be stored under refrigeration, not frozen, protected from light, and used within 4 hours of dilution. Before administration, allow the diluted solution of KXX to reach room temperature. KXX in a vial or in an intravenous infusion fluid should never be subjected to artificial heating (e.g., hot water, microwave)."}, "[4]": {"system": "subjects weighing ≥120 kg", "test": "Analysis of prior pegloticase randomized clinical trials by body weight (>=120 kg)", "type": "in vivo, human", "settings": "≥120 kg group"}, "[5]": {"system": "patients with chronic gout refractory to conventional therapy", "test": "Open-label extension study", "type": "in vivo, human", "settings": "KXX 8 mg every 2 weeks", "description": "Two cases of congestive heart failure exacerbation occurred during the trials in patients receiving treatment with KXX 8 mg every 2 weeks. No cases were reported in placebo-treated patients. Four subjects had exacerbations of pre-existing congestive heart failure while receiving KXX 8 mg every 2 weeks during the open-label extension study.\nStudies were stratified for the presence of tophi. Seventy-one percent (71%) of patients had baseline tophi. All patients were prophylaxed with an oral antihistamine, intravenous corticosteroid and acetaminophen. Patients also received prophylaxis for gout flares with non-steroidal anti-inflammatory drugs (NSAIDs) or colchicine, or both, beginning at least one week before KXX treatment unless medically contraindicated or not tolerated. Patients who completed the randomized clinical trials were eligible to enroll in a 2-year open label extension study."}, "[6]": {"system": "patients with chronic gout refractory to conventional therapy", "settings": "cited from earlier work"}, "[7]": {"system": "anti-pegloticase antibodies, anti-PEG antibodies", "settings": "cited from earlier work"}, "[8]": {"system": "patients with chronic gout refractory to conventional therapy", "settings": "bi-weekly or every 4 weeks for up to 30 months, 149 patients; cited from earlier work"}, "[9]": {"settings": "KXX 8 mg every 2 weeks (N = 85)"}}, "note": "Read-outs that look alike come from different tables or passages of the source.", "data": [{"substance": "pegloticase", "values": [{"measurement": "frequency of anaphylaxis", "setting": "[1]; 4-week dosing frequency (6 of 126)", "value": 4.8, "unit": "%"}, {"measurement": "anaphylaxis in total patients studied in the clinical program of IV KXX", "setting": "[1]; 14 of 273 total patients", "value": 5.1, "unit": "%"}, {"measurement": "patients with infusion reactions", "setting": "[1]; KXX 8 mg every 2 weeks", "value": 26, "unit": "%"}, {"measurement": "Adverse reaction: Anaphylaxis", "setting": "[1]; [9]", "value": "4 (5%) N (%)"}, {"measurement": "Adverse reaction: Chest Pain", "setting": "[1]; [9]", "value": "5 (6%) N (%)"}, {"measurement": "Adverse reaction: Constipation", "setting": "[1]; [9]", "value": "5 (6%) N (%)"}, {"measurement": "Adverse reaction: Contusion or Ecchymosis", "setting": "[1]; [9]", "value": "9 (11%) N (%)"}, {"measurement": "Adverse reaction: Gout Flare", "setting": "[1]; [9]", "value": "65 (77%) N (%)"}, {"measurement": "Adverse reaction: Infusion reaction", "setting": "[1]; [9]", "value": "22 (26%) N (%)"}, {"measurement": "Adverse reaction: Nasopharyngitis", "setting": "[1]; [9]", "value": "6 (7%) N (%)"}, {"measurement": "Adverse reaction: Nausea", "setting": "[1]; [9]", "value": "10 (12%) N (%)"}, {"measurement": "Adverse reaction: Vomiting", "setting": "[1]; [9]", "value": "4 (5%) N (%)"}, {"measurement": "patients with infusion reactions", "setting": "[1]; KXX 8 mg every 4 weeks", "value": 41, "unit": "%"}, {"measurement": "cases of congestive heart failure exacerbation", "setting": "[1]; during the trials, KXX 8 mg every 2 weeks", "value": "Two"}, {"measurement": "frequency of anaphylaxis", "setting": "[1]; every 2 weeks dosing regimen (8 of 123 patients)", "value": 6.5, "unit": "%"}, {"measurement": "percentage of patients with any gout flare", "setting": "[1]; first 3 months, KXX 8 mg every 2 weeks", "value": 74, "unit": "%"}, {"measurement": "percentage of patients with any gout flare", "setting": "[1]; first 3 months, KXX 8 mg every 4 weeks", "value": 81, "unit": "%"}, {"measurement": "infusion reaction manifestation: chest discomfort, frequency", "setting": "[1]; human, in vivo", "value": 9.5, "unit": "%"}, {"measurement": "infusion reaction manifestation: chest pain, frequency", "setting": "[1]; human, in vivo", "value": 9.5, "unit": "%"}, {"measurement": "infusion reaction manifestation: dyspnea, frequency", "setting": "[1]; human, in vivo", "value": 7.1, "unit": "%"}, {"measurement": "infusion reaction manifestation: erythema, frequency", "setting": "[1]; human, in vivo", "value": 9.5, "unit": "%"}, {"measurement": "infusion reaction manifestation: pruritus, frequency", "setting": "[1]; human, in vivo", "value": 9.5, "unit": "%"}, {"measurement": "infusion reaction manifestation: urticaria, frequency", "setting": "[1]; human, in vivo", "value": 10.6, "unit": "%"}, {"measurement": "infusion reactions occurring with the first infusion", "setting": "[1]; human, in vivo", "value": "approximately 3%"}, {"measurement": "infusion reactions that occurred during the time of infusion", "setting": "[1]; human, in vivo", "value": "approximately 91%"}, {"measurement": "reactions in patients with glucose-6-phosphate dehydrogenase (G6PD) deficiency", "setting": "[1]; human, in vivo", "value": "Life threatening hemolytic reactions and methemoglobinemia have been reported"}, {"measurement": "percentage of patients with any gout flare", "setting": "[1]; subsequent 3 months, KXX 8 mg every 2 weeks", "value": 41, "unit": "%"}, {"measurement": "percentage of patients with any gout flare", "setting": "[1]; subsequent 3 months, KXX 8 mg every 4 weeks", "value": 57, "unit": "%"}, {"measurement": "maximum serum concentrations of pegloticase versus dose", "setting": "[2]", "value": "increased in proportion to the dose administered"}, {"measurement": "stability diluted in infusion bags", "setting": "[3]", "value": 4, "unit": "h"}, {"measurement": "impact on serum urate", "setting": "[4]", "value": "less"}, {"measurement": "initial serum peak of pegloticase (Cmax)", "setting": "[4]", "value": "lower"}, {"measurement": "tendency to become non-responders", "setting": "[4]", "value": "greater tendency to become non-responders"}, {"measurement": "subjects with exacerbations of pre-existing congestive heart failure", "setting": "[5]", "value": "Four"}, {"measurement": "incidence of infusion-related reactions", "setting": "[6]; pooled Phase 3, 8 mg biweekly dosing", "value": 26, "unit": "%"}, {"measurement": "incidence of infusion-related reactions", "setting": "[6]; pooled Phase 3, 8 mg every-4-week dosing regimen", "value": 40, "unit": "%"}, {"measurement": "patients with IRs in whom loss of response (return to SUA >6 mg/dL) preceded the first IR", "setting": "[6]; pooled Phase 3, 20/21", "value": 95, "unit": "%"}, {"measurement": "patients with antibody titer exceeding 1:2430 at any time who maintained a response", "setting": "[7]; another study, 7 of 65", "value": 10.8, "unit": "%"}, {"measurement": "patients with titers exceeding 1:2430 who developed IRs", "setting": "[7]; another study, 31 of 52", "value": 60, "unit": "%"}, {"measurement": "patients who never had an antibody titer above 1:2430 who maintained a response", "setting": "[7]; another study, 58/65", "value": 89.2, "unit": "%"}, {"measurement": "patients who developed high titer anti-pegloticase antibodies and subsequently lost response", "setting": "[7]; one study, 69 of 169 patients", "value": 41, "unit": "%"}, {"measurement": "participants with high antibody titers who maintained a response (serum urate <6 mg/dL)", "setting": "[7]; second study", "value": "1 of 52"}, {"measurement": "participants with high titers who developed IR", "setting": "[7]; second study", "value": 60, "unit": "%"}, {"measurement": "long-term safety", "setting": "[8]", "value": "No new safety signals were observed"}]}]}
